Results as given in article PMC4358367, “Structural basis of diverse membrane target recognitions by ankyrins” (eLife, 2014).

Tests used:
[1] = target: T1, Nav1.2 ABD C-terminal half (UniProt Q99250)
T1 chain: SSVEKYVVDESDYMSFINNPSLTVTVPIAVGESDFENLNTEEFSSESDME

[2] = target: T2, AnkG_repeats (24 ANK repeats of rat 190 kDa ankyrin-G, residues 38–855) (rat, UniProt O70511 38-855); experiment: ITC
T2 chain: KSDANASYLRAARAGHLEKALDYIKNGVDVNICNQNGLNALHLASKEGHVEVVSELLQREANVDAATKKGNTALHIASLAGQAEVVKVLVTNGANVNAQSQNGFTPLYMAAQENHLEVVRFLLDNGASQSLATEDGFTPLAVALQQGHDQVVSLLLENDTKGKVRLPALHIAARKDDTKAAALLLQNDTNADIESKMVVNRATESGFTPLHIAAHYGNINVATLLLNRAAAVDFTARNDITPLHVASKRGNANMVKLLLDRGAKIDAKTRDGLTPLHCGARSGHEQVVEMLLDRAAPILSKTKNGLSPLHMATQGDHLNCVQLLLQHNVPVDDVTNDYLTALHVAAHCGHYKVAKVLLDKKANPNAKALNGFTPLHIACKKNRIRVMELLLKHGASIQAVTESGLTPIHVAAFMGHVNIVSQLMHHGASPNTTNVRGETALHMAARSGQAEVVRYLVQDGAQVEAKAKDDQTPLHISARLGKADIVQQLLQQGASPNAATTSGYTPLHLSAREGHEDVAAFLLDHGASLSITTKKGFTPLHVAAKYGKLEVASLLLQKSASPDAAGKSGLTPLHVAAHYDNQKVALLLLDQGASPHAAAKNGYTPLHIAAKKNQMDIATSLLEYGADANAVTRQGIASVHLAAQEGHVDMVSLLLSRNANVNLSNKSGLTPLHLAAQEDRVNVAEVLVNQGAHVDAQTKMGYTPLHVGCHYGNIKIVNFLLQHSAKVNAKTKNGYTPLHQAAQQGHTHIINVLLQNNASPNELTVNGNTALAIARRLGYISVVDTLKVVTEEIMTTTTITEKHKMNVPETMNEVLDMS

[3] = target: T3, AnkG_repeats (24 ANK repeats of rat 190 kDa ankyrin-G, residues 38–855), O70511; experiment: ITC; details: chain shown with the change
T3 chain: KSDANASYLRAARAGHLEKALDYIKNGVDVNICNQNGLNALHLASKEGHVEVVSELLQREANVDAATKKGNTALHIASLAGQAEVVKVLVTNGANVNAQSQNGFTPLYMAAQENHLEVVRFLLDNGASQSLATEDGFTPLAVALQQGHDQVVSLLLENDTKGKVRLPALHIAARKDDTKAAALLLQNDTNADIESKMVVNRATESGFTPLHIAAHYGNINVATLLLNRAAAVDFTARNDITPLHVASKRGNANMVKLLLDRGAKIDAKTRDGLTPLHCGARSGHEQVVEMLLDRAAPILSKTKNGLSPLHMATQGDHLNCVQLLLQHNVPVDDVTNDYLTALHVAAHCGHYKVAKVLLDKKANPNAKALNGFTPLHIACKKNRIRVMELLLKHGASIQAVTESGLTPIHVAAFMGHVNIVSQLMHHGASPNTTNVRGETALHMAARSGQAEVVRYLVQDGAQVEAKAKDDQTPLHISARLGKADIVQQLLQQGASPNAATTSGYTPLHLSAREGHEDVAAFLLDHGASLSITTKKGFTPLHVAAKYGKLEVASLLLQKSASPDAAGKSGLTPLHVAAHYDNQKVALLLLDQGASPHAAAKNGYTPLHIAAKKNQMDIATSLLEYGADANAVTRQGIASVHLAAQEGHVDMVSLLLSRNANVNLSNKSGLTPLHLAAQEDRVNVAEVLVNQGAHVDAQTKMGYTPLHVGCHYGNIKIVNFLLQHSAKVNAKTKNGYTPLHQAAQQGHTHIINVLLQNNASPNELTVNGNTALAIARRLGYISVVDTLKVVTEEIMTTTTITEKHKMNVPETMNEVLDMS

Binder	Kd [3] [µM]	other results
MMNEDA [AnkB repeats R1-6]		Kd [1]: ~2.3 µM
Nav1.2 ABD without the C-terminal less-conserved 10 residues of ABD-C (domain or fragment) KALDEIKPLEDLNNKKDSCISNHTTIEIGKDLNYLKDGNGTTSGIGSSVEKYVVDESDYMSFINNPSLTVTVPIAVGESDFENLN		Kd [2]: 0.17 µM
Nav1.2_ABD (ankyrin binding domain of Nav1.2, residues 1035–1129) E1112Q (protein) KALDEIKPLEDLNNKKDSCISNHTTIEIGKDLNYLKDGNGTTSGIGSSVEKYVVDESDYMSFINNPSLTVTVPIAVGQSDFENLNTEEFSSESDM	4.6	
Nav1.2_ABD (ankyrin binding domain of Nav1.2, residues 1035–1129) E1112A (protein) KALDEIKPLEDLNNKKDSCISNHTTIEIGKDLNYLKDGNGTTSGIGSSVEKYVVDESDYMSFINNPSLTVTVPIAVGASDFENLNTEEFSSESDM	4.3	
